Measured values as given in patent US12441790B2, “Binding proteins to the human thrombin receptor, PAR4” (MONASH UNIVERSITY, priority 2017, dated 2025).
Entries after “also recorded” stand apart in the source; their conditions may differ.

Key:
[1] = test system: PAR4-120Ala and PAR4-120Thr variants; test: PAR4 thrombin cleavage assay on PAR4 variants in HEK293T cells; assay type: cell-based, human; conditions: for inhibition of thrombin cleavage of Ala120 and Thr120 PAR4 variants: pre-incubation 1, 10 or 100 μg/ml before thrombin
Protocol: 1×10^6 HEK293T cells (in Dulbecco's modified eagle's medium+10% foetal calf serum) were seeded onto 12-well plates 24 hours before transfection. When confluent, they were transiently transfected with 1 μg of DNA from one of the PAR4 variants (expression vectors pBJ-FLAG-PAR4-120A-296F or pBJ-FLAG-PAR4-120T-296F; Edelstein et al (2014) Blood 124(23):3450-8) plus 4 μL of Lipofectamine 2000, as per manufacturer's instructions. Forty-eight hours after transfection, cells were harvested and washed twice with PBS, then resuspended to a count of 1×10^6/mL. Cells (50 μL assays/0.5×10^5 cells per condition) were then pre-treated with either 1, 10 or 100 μg/mL of 5RC3 or sub-clone 5A.RC3.F10b.H4b or 100 μg/mL matched Isotype control (mouse IgG1) for 15 minutes at 37° C. Cells were then stimulated with 2 U/mL of thrombin for 10 minutes. The reaction was stopped by the addition of 4 U/mL hirudin. Cells were then washed once and resuspended with PBS containing a 1:200 dilution of FITC anti-FLAG antibody (Sigma, clone M2) and incubated for 1 hour at room temperature in the dark. Cells were then fixed with 1% paraformaldehyde (final concentration) and read on a FACSCalibur flow cytometer to determine % of FL1/FITC-Positive events. Data were normalised against the resting sample (100%, no thrombin treatment).
In order to determine whether the anti-PAR4 clones could inhibit the effects of thrombin on PAR4 cleavage, in vitro inhibition assays were performed. HEK293T cells were transiently transfected with the PAR4-120Ala (A) or PAR4-120Thr (T) variants which contained a FLAG epitope upstream of the thrombin cleavage site. Cleavage of PAR4 by thrombin was measured by loss of Flag tag from the PAR4 expressing HEK293 cells using flow cytometry.
Cells were stimulated with increasing doses of thrombin (0.1-2 U/ml) and the amount of thrombin cleavage was measured as a loss of FLAG epitope using a FITC-conjugated anti-FLAG antibody by flow cytometry.

[2] = target: T1, hPAR4 peptide (Homo sapiens, UniProt Q96RI0); test: mAb capture SPR (Biacore, anti-mouse Fc capture); assay type: binding
T1 construct: host or cells: synthetic peptide
Protocol: Biacore analysis was performed on a Biacore T200 using two different methods either an anti-mouse Fc capture approach or using a similar method as described above using the ProteoOn system.
A series S CM5 sensor chip was activated with standard EDC/NHS amine coupling chemistry using the manufacturers recommended protocol with Goat anti-mouse IgG Fc. Anti-hPAR4 mAbs were captured at 1-2 ug/ml for 2 minutes at 10 ul/minute on flow cell 2 (FC2) and flow cell 1 (FC1) was used as a reference channel. […] Blank injections of buffer alone were also performed. All injections were performed in duplicate and in a random order. After each capture/injection/dissociation cycle the chip was regenerated with a 30 second injection of 0.1M Glycine pH2.0.
For the mAb capture method low levels of ligand mAb and analyte hPAR4 were used in an attempt to produce a 1:1 binding interaction, this method has been used successfully to measure kinetics and affinity KD's (Kamat V and Rafique A (2017) Analytical Biochemistry 530:75-86), despite using a whole IgG.
The kinetics of the binding interaction between the mAbs and hPAR4 was measured using Surface Plasmon Resonance (SPR; Biacore) by two different methods: 1. Anti-mouse Fc mAb capture method and 2. Streptavidin (SA) chip to capture biotinylated peptide. The ka(on) rate and kd(off) rates and KD were measured and fitted to a Langmuir model using the Biacore evaluation software.

[3] = test system: human platelets; test: Thrombin-induced platelet aggregation assay; assay type: cell-based
Protocol: Platelet aggregation was measured by light transmission aggregometry in a 96-well plate format. Human isolated platelets (2×10^8/ml) were pre-treated for 10 mins at 37° C. with dimethylsulfoxide (DMSO) (1% v/v), the PAR1 antagonist vorapaxar (90 nM), the anti-PAR4 antibody 5RC3 (20-100 μg/ml), or a combination of vorapaxar and 5RC3. Platelets were treated with one of thrombin (0.1 U/ml) and aggregation was analysed at 37° C. in a FLUOstar OPTIMA plate reader (BMG Labtech) using a 595 nm excitation filter, for a period of 50 min (10 read cycles with 5 min double orbital shake period between each read). Optical density was normalised against the blank (maximum) and unstimulated platelets (minimum) and expressed as % maximum.
Human isolated platelets of different PAR4 variants were assessed for their responses to PAR4 agonists.
The binding of five anti-PAR4 monoclonal antibodies to human platelets was examined by flow cytometry.

[4] = test system: human whole blood; test: Human whole blood thrombosis assay; assay type: cell-based
Protocol: Human whole blood collected in citrate (3.2%) was pre-incubated for 15 min at 37° C. with PE-conjugated anti-CD9 antibody (4 μg/mL) and an anti-fibrin antibody (5 μg/ml), and one of hirudin (800 U/ml), DMSO (1% v/v), PAR-1 antagonist E5555 (1 μM), anti-PAR4 antibody (0.2 mg/ml) or the combination of both PAR inhibitors. Whole blood was re-calcified with 5-7.5 mM CaCl2 (final concentration) to initiate coagulation, and drawn over glass microslides (1×0.1 mm internal diameter) coated with bovine type 1 collagen (250 μg/ml) at a fixed flow rate of 0.06 ml/min, resulting in a wall shear rate of 600 s^−1. Dual colour confocal fluorescence images were recorded at 488 and 561 nm excitation, collected through a 40× water immersion objective. Confocal z-stacks were continuously recorded for 2 min before modified, calcium-free Tyrode's buffer was flowed over the thrombi and z-stacks encompassing the entire height of the thrombus field were recorded over a period of 10 min. Platelet thrombi were defined using anti-CD9-PE and fibrin volume was quantified using average fluorescence of the thrombus field. Data were normalised against the hirudin baseline and expressed as a percentage of the control.
Thrombosis parameters including platelet deposition, thrombin activity, fibrin volume and ratio of fibrin per thrombus were measured in real-time over a period of 10 minutes in a whole blood thrombosis assay as described herein under conditions of coagulation.
Platelet deposition (PE-conjugated anti-CD9), thrombin activity (FRET-based thrombin probe), fibrin volume (Dylight650-conjugated anti-fibrin antibody) and the ratio of fibrin per thrombus at the 10 minute end-point is shown in FIG. 10A by confocal microscopy (to allow for volume measurements to be taken) using a Nikon Air with a 25× lens and 2× digital magnification.
The volume of human thrombi formed after 3 min was quantified by confocal microscopy in an ex vivo human whole blood thrombosis assay.

[5] = test system: hPAR4 peptides 1-9, 8-15 and 11-20; test: Epitope mapping ELISA with overlapping hPAR4 peptides; assay type: binding, human; conditions: peptides coated at 10 ug/ml
Protocol: Briefly the peptides were coated onto a Nunc maxisorp ELISA plate at 10 ug/ml overnight in coating buffer (0.1M sodium carbonate pH8.0). Purified mAbs diluted in PBS were used in place of supernatant.

[6] = 10 minute endpoint, 5A.RC3 100 μg/ml, hirudin 800 U/ml

T1 sequence (Q96RI0 35-54 limits assumed): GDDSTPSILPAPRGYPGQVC

B1: 5A.RC3: anti-PAR4 monoclonal antibody, IgG2a/K, VH SEQ ID NO:11 and VL SEQ ID NO:12 (antibody, V domains shown)
VH: QVQLVESGGGVVQPGRSLRLSCAASGFTLSNYGMHWVRQAPGKGLEWVSVIWYDGSNKHYADSVKGRFTISRDNSKNTLYLQMNSLRAEDTAVYYCARESIVEVLPPFDYWGQGTLVTVSS
VL: KIVLTQSPGTLSLSPGERVTLSCRASQRVRNNYLAWFQQKPGQAPRLFIYGASSRATGIPDRFSGSGSGTDFIFTISRLEPEDFAVYYCQQYGNSYTFGQGTKLEIK
modifications: VH of 5A.RC3; VL of 5A.RC3
In the case of B1, the “reversal of inhibition by the immunising peptide” value [1] is reported as “reversed”, the “inhibition of thrombin cleavage of Ala120 and Thr120 PAR4 variants” value [1] is reported as “near complete inhibition of thrombin cleavage; also recorded: significantly inhibited thrombin induced PAR4 cleavage” and the “inhibition of thrombin cleavage of Ala120 and Thr120 PAR4 variants” value ([1]; listed as 5A.RC3.H4b) is reported as “effectively inhibited cleavage of PAR4 expressed on the surface of HEK293 cells in a dose dependent manner”. The ka [2] was 330000 M⁻¹ s⁻¹, the kd [2] was 0.00487 s⁻¹ and the “inhibition of platelet aggregation at the highest concentration tested” value ([3]; 0.1 U/ml thrombin) was “Near maximal inhibition”. For the same molecule, the “inhibition of thrombin-induced platelet aggregation” value ([3]; in the presence of a PAR1 antagonist, genotypes TT, AT, AA) was “inhibited in a dose dependent manner”, the total thrombus volume ([4]; 100 μg/ml, thrombi formed after 3 min) was “reduced total thrombus volume” and the “ratio of fibrin per thrombus volume” value ([4]; 10 minute endpoint, 5A.RC3 100 μg/ml) was “significantly inhibited”. The fibrin volume [4, 6] was “significantly inhibited”, the platelet deposition [4, 6] was “no effect” and the thrombin activity [4, 6] was “significantly inhibited”. For the same molecule, the “hPAR4 peptide the mAb reacted with” value [5] was “amino acid residues 8-15”.
